# Source: IntAct's records for PubMed 31515488
# B1: Vesicle transport through interaction with t-SNAREs homolog 1B (Homo sapiens), Q9UEU0 (parent)
# chain: MASSAASSEHFEKLHEIFRGLHEDLQGVPERLLGTAGTEEKKKLIRDFDEKQQEANETLAEMEEELRYAPLSFRNPMMSKLRNYRKDLAKLHREVRSTPLTATPGGRGDMKYGIYAVENEHMNRLQSQRAMLLQGTESLNRATQSIERSHRIATETDQIGSEIIEELGEQRDQLERTKSRLVNTSENLSKSRKILRSMSRKVTTNKLLLSIIILLELAILGGLVYYKFFRSH
# partner: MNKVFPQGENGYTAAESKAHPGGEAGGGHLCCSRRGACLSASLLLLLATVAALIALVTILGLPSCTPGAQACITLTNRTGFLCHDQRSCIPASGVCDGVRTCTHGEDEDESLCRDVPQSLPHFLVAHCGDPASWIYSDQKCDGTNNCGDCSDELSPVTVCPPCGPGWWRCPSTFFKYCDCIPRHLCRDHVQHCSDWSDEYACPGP
# B2: Nebulette (Homo sapiens), O76041 (parent)
# chain: MRVPVFEDIKDETEEEKIGEEENEEDQVFYKPVIEDLSMELARKCTELISDIRYKEEFKKSKDKCTFVTDSPMLNHVKNIGAFISEAKYKGTIKADLSNSLYKRMPATIDSVFAGEVTQLQSEVAYKQKHDAAKGFSDYAHMKEPPEVKHAMEVNKHQSNISYRKDVQDTHTYSAELDRPDIKMATQISKIISNAEYKKGQGIMNKEPAVIGRPDFEHAVEASKLSSQIKYKEKFDNEMKDKKHHYNPLESASFRQNQLAATLASNVKYKKDIQNMHDPVSDLPNLLFLDHVLKASKMLSGREYKKLFEENKGMYHFDADAVEHLHHKGNAVLQSQVKYKEEYEKNKGKPMLEFVETPSYQASKEAQKMQSEKVYKEDFEKEIKGRSSLDLDKTPEFLHVKYITNLLREKEYKKDLENEIKGKGMELNSEVLDIQRAKRASEMASEKEYKKDLESIIKGKGMQAGTDTLEMQHAKKAAEIASEKDYKRDLETEIKGKGMQVSTDTLDVQRAKKASEMASQKQYKKDLENEIKGKGMQVSMDIPDILRAKRTSEIYSQRKYKDEAEKMLSNYSTIADTPEIQRIKTTQQNISAVFYKKEVGAGTAVKDSPEIERVKKNQQNISSVKYKEEIKHATAISDPPELKRVKENQKNISNLQYKEQNYKATPVSMTPEIERVRRNQEQLSAVKYKGELQRGTAISDPPELKRAKENQKNISNVYYRGQLGRATTLSVTPEMERVKKNQENISSVKYTQDHKQMKGRPSLILDTPAMRHVKEAQNHISMVKYHEDFEKTKGRGFTPVVDDPVTERVRKNTQVVSDAAYKGVHPHIVEMDRRPGIIVDLKVWRTDPGSIFDLDPLEDNIQSRSLHMLSEKASHYRRHWSRSHSSSTFGTGLGDDRSEISEIYPSFSCCSEVTRPSDEGAPVLPGAYQQSHSQGYGYMHQTSVSSMRSMQHSPNLRTYRAMYDYSAQDEDEVSFRDGDYIVNVQPIDDGWMYGTVQRTGRTGMLPANYIEFVN
# partner: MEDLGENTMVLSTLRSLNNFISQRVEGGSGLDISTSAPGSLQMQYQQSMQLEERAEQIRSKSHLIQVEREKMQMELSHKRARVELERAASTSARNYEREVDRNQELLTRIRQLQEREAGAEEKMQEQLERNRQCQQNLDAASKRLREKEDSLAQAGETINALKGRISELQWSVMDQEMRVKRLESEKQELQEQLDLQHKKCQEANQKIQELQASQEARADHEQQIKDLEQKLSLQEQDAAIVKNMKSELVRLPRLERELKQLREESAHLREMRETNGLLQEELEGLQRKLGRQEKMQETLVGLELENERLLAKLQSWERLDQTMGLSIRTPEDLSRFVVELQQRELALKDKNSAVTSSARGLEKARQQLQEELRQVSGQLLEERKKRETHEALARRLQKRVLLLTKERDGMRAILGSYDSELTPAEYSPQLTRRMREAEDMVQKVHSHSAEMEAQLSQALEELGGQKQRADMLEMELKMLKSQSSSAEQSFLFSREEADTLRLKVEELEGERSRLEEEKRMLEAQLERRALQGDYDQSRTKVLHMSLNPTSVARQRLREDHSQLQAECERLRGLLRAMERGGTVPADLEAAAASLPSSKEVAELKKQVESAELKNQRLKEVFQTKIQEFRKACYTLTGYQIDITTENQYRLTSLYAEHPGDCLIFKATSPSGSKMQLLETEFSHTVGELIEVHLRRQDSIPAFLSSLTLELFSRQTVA
# B3: Coiled-coil domain-containing protein 33 (Homo sapiens), Q8N5R6-5 (parent)
# chain: MGEPGPPSPPAPKAAPGLIDSFSEMNNYRRAMQKMAEDILSLRRQASILEGENRILRSRLAQQEEEEGQGKASEAQNTVSMKQKLLLSELDMKKLRDRVQHLQNELIRKNDREKELLLLYQAQQPQAALLKQYQGKLQKMKALEETVRHQEKVIEKMERVLEDRLQDRSKPPPLNRQQGKPYTGFPMLSASGLPLGSMGENLPVELYSVLLAENAKLRTELDKNRHQQAPIILQQQALPVDPGELGAGGDLTERLQETHGPGHSECTETLPAQDLLSGTSDKFNLLAKLEHAQSRILSLESQLEDSARRWGREKQDLATRLQEQEKGFRHPSNSIIIEQPVSDPPGVAPRGSGGGAGSHRTPKVTGP
# partner: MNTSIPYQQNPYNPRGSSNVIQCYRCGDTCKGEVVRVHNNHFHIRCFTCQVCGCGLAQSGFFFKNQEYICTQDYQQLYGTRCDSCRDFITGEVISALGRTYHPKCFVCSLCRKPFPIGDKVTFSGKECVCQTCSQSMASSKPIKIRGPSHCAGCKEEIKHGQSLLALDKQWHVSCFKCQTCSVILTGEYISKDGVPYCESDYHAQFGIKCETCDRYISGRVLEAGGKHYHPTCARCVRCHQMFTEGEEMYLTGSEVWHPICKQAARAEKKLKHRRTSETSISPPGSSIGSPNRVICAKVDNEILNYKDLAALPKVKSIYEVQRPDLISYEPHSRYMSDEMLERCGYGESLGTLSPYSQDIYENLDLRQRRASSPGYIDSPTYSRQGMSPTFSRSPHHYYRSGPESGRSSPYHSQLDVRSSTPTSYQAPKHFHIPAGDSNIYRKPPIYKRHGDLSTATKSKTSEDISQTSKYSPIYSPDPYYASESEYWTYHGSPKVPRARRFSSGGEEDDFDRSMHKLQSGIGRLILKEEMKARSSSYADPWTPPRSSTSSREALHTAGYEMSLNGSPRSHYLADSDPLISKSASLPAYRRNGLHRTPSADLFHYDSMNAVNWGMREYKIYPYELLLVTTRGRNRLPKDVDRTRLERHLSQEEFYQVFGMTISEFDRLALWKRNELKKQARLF
# Variants of: B1
# Conditions: with lrad1_human LDLRAD1, Q5T700
row,effect of a mutation on the interaction,Variant
1,with no effect,R176H
2,with no effect,R124Q

# Variants of: B2
# Conditions: with md1l1_human MAD1L1, Q9Y6D9
row,effect of a mutation on the interaction,Variant
1,with no effect,R613Q
2,with no effect,M351V

# Variants of: B3
# Conditions: with ablm3_human ABLIM3, O94929
row,effect of a mutation on the interaction,Variant
1,with no effect,R30L
2,disrupting interaction strength,P203L
